In IntAct's records for PubMed 31515488:

B1: Zinc finger protein Aiolos (Homo sapiens), Q9UKT9 (parent)
chain: MEDIQTNAELKSTQEQSVPAESAAVLNDYSLTKSHEMENVDSGEGPANEDEDIGDDSMKVKDEYSERDENVLKSEPMGNAEEPEIPYSYSREYNEYENIKLERHVVSFDSSRPTSGKMNCDVCGLSCISFNVLMVHKRSHTGERPFQCNQCGASFTQKGNLLRHIKLHTGEKPFKCHLCNYACQRRDALTGHLRTHSVEKPYKCEFCGRSYKQRSSLEEHKERCRTFLQSTDPGDTASAEARHIKAEMGSERALVLDRLASNVAKRKSSMPQKFIGEKRHCFDVNYNSSYMYEKESELIQTRMMDQAINNAISYLGAEALRPLVQTPPAPTSEMVPVISSMYPIALTRAEMSNGAPQELEKKSIHLPEKSVPSERGLSPNNSGHDSTDTDSNHEERQNHIYQQNHMVLSRARNGMPLLKEVPRSYELLKPPPICPRDSVKVINKEGEVMDVYRCDHCRVLFLDYVMFTIHMGCHGFRDPFECNMCGYRSHDRYEFSSHIARGEHRALLK
B2: Inhibitor of nuclear factor kappa-B kinase-interacting protein (Homo sapiens), Q70UQ0-4 (parent)
chain: MSEVKSRKKSGPKGAPAAEPGKRSEGGKTPVARSSGGGGWADPRTCLSLLSLGTCLGLAWFVFQQSEKFAKVENQYQLLKLETNEFQQLQSKISLISEKLESTESILQEATSSMSLMTQFEQEVSNLQDIMHDIQNNEEVLTQRMQSLNEKFQNITDFWKRSLEEMNINTDIFKSEAKHIHSQVTVQINSAEQEIKLLTERLKDLEDSTLRNIRTVKRQEEEDLLRVEEQLGSDTKAIEKLEEEQHALFARDEDLTNKLSDYEPKVEECKTHLPTIESAIHSVLRVSQDLIETEKKMEDLTMQMFNMEDDMLKAVSEIMEMQKTLEGIQYDNSILKMQNELDILKEKVHDFIAYSSTGEKGTLKEYNIENKGIGGDF
partner: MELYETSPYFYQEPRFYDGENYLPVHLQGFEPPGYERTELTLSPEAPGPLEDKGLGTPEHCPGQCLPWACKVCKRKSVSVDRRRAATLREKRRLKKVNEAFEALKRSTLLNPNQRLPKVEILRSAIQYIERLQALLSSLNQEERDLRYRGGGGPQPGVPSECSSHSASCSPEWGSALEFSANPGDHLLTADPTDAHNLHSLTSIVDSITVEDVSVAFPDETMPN
B3: "Bile acid-CoA:amino acid N-acyltransferase" (Homo sapiens), Q14032 (parent)
chain: MIQLTATPVSALVDEPVHIRATGLIPFQMVSFQASLEDENGDMFYSQAHYRANEFGEVDLNHASSLGGDYMGVHPMGLFWSLKPEKLLTRLLKRDVMNRPFQVQVKLYDLELIVNNKVASAPKASLTLERWYVAPGVTRIKVREGRLRGALFLPPGEGLFPGVIDLFGGLGGLLEFRASLLASRGFASLALAYHNYEDLPRKPEVTDLEYFEEAANFLLRHPKVFGSGVGVVSVCQGVQIGLSMAIYLKQVTATVLINGTNFPFGIPQVYHGQIHQPLPHSAQLISTNALGLLELYRTFETTQVGASQYLFPIEEAQGQFLFIVGEGDKTINSKAHAEQAIGQLKRHGKNNWTLLSYPGAGHLIEPPYSPLCCASTTHDLRLHWGGEVIPHAAAQEHAWKEIQRFLRKHLIPDVTSQL

Variants of: B1
Conditions: with aakb2_human PRKAB2, O43741
aakb2_human PRKAB2, O43741, sequence (O43741 whole entry): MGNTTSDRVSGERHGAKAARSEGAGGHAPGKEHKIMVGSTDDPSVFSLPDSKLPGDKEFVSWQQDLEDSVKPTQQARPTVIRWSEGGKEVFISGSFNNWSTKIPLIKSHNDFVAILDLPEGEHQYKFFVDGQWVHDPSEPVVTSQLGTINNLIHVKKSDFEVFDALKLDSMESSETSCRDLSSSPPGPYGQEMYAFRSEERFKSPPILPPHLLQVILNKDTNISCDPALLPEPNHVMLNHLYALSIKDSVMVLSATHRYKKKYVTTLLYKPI

Row | effect of a mutation on the interaction | Variant
1 | with no effect | A24V

Variants of: B1
Conditions: with exoc8_human EXOC8, Q8IYI6
exoc8_human EXOC8, Q8IYI6, sequence (Q8IYI6 whole entry): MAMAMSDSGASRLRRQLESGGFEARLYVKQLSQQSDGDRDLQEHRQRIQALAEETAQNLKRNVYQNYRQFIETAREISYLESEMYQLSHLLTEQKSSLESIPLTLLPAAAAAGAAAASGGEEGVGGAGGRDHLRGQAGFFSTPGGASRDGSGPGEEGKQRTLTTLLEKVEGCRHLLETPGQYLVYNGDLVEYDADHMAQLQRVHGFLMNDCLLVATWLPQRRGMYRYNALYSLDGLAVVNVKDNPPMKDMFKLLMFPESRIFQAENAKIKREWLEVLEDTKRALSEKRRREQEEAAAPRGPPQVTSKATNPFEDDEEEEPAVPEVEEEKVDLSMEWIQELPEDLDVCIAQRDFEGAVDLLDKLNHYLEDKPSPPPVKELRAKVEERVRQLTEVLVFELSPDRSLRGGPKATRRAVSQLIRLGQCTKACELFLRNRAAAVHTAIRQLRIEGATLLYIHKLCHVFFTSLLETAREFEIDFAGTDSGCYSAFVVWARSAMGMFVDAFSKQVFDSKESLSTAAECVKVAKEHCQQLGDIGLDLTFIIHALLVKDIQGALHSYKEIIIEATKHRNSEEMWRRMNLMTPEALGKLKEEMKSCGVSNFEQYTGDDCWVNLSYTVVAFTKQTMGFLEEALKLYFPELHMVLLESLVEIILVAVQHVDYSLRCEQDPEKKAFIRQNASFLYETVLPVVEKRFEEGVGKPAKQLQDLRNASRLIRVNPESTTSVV

Row | effect of a mutation on the interaction | Variant
2 | with no effect | A24V

Variants of: B1
Conditions: with tb22b_human TBC1D22B

Row | effect of a mutation on the interaction | Variant
3 | with no effect | A24V

Variants of: B1
Conditions: with p85b_human PIK3R2, O00459
p85b_human PIK3R2, O00459, sequence (O00459 whole entry): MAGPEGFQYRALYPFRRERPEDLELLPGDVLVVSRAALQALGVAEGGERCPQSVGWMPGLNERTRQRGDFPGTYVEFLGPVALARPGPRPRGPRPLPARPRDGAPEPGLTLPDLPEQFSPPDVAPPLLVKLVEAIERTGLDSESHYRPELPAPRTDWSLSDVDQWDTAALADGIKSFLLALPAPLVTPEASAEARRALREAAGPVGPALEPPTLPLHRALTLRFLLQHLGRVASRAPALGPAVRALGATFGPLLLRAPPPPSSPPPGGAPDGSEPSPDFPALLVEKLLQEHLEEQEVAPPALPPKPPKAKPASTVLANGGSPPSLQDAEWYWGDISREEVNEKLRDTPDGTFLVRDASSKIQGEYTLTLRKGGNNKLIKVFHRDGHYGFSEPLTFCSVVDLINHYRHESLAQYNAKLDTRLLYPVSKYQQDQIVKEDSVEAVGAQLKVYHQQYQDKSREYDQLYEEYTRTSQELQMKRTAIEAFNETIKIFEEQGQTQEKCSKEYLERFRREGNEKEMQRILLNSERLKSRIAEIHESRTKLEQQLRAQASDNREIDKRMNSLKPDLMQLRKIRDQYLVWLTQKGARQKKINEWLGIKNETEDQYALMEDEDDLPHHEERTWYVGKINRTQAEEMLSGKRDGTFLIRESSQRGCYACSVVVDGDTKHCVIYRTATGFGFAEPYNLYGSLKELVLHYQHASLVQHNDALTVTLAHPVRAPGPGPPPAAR

Row | effect of a mutation on the interaction | Variant
4 | with no effect | A24V

Variants of: B1
Conditions: with rpac1_human POLR1C

Row | effect of a mutation on the interaction | Variant
5 | with no effect | A24V

Variants of: B1
Conditions: with pfd5_human PFDN5, Q99471
pfd5_human PFDN5, Q99471, sequence (Q99471 whole entry): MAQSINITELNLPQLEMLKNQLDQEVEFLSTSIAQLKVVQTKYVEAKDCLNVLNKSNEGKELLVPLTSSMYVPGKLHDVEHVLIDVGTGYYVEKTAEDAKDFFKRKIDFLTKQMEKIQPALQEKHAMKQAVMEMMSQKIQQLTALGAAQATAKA

Row | effect of a mutation on the interaction | Variant
6 | with no effect | A24V

Variants of: B1
Conditions: with nek6_human NEK6, Q9HC98
nek6_human NEK6, Q9HC98, sequence (Q9HC98 whole entry): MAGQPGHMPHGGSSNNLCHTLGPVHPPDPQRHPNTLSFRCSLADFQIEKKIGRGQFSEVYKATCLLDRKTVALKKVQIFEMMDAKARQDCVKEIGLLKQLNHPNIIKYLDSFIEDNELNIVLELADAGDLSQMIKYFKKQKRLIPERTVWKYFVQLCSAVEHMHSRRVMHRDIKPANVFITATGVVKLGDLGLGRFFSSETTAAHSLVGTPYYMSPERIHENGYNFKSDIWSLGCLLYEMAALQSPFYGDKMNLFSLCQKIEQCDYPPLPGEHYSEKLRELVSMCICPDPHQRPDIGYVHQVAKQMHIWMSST

Row | effect of a mutation on the interaction | Variant
7 | with no effect | A24V

Variants of: B1
Conditions: with exos5_human EXOSC5, Q9NQT4
exos5_human EXOSC5, Q9NQT4, sequence (Q9NQT4 whole entry): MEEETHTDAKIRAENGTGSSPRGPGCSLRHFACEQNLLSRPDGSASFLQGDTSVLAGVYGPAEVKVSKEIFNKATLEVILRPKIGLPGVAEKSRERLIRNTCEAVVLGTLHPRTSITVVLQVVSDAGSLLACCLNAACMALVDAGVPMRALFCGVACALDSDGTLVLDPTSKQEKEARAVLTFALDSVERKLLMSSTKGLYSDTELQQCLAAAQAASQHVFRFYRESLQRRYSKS

Row | effect of a mutation on the interaction | Variant
8 | with no effect | A24V

Variants of: B1
Conditions: with tstd2_human TSTD2, Q5T7W7
tstd2_human TSTD2, Q5T7W7, sequence (Q5T7W7 whole entry): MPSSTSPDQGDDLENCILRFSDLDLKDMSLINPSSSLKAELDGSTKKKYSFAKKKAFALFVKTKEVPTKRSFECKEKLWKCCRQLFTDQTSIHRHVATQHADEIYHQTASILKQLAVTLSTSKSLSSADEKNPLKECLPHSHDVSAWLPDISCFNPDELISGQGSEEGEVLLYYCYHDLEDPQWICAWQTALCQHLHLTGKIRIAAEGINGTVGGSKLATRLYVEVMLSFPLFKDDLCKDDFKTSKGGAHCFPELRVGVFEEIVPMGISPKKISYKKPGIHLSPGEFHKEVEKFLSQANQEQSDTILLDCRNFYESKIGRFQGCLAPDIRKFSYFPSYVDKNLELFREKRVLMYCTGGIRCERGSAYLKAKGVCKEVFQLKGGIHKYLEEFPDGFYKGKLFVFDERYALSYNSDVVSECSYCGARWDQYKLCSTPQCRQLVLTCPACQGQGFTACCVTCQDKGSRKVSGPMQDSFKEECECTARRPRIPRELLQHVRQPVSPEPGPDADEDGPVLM

Row | effect of a mutation on the interaction | Variant
9 | with no effect | A24V

Variants of: B1
Conditions: with aakb2_human PRKAB2, O43741
Remark: another data set of the same source

Row | effect of a mutation on the interaction | Variant
10 | with no effect | I338M

Variants of: B1
Conditions: with pfd5_human PFDN5, Q99471
Remark: another data set of the same source

Row | effect of a mutation on the interaction | Variant
11 | with no effect | I338M

Variants of: B1
Conditions: with p85b_human PIK3R2, O00459
Remark: another data set of the same source

Row | effect of a mutation on the interaction | Variant
12 | with no effect | I338M

Variants of: B2
Conditions: with myog_human MYOG

Row | effect of a mutation on the interaction | Variant
13 | disrupting interaction strength | D157Y
14 | with no effect | V186G

Variants of: B3
Conditions: with fhl3_human FHL3, Q13643
fhl3_human FHL3, Q13643, sequence (Q13643 whole entry): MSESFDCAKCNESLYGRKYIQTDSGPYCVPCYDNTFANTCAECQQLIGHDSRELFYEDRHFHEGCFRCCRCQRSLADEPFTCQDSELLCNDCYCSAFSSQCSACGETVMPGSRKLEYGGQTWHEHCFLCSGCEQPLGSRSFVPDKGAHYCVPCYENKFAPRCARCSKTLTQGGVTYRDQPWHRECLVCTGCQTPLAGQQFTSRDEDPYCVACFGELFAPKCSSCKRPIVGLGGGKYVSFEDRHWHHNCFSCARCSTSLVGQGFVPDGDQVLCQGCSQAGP

Row | effect of a mutation on the interaction | Variant
15 | with no effect | A182S
